Molecular target: the molecule itself
Test: SEC; Superdex S200 HR 10/300, 10 mM HEPES pH 8.0, 100 mM NaCl, protein ~20 mg/ml, 0.2 ml/min; calibrated with BSA, alcohol dehydrogenase, β-amylase

| Protein | binding result |
| --- | --- |
| Recombinant mature (Δ133) human HtrA2 S276C (enzyme, UniProt O43464 134-458, looked up, human serine protease HtrA2, mature processed form (Δ133): the 458 amino acid precursor without its first 133 residues, with S276C; Made by site-directed mutagenesis of the wild-type construct in pET-20b; also called hHtrA2S276C; human counterpart of the mouse mnd2 mutant; source: E. coli Rosetta (DE3), purified (Ni-NTA, gel filtration)) AVPSPPPASPRSQYNFIADVVEKTAPAVVYIEILDRHPFLGREVPISNGSGFVVAADGLIVTNAHVVADRRRVRVRLLSGDTYEAVVTAVDPVADIATLRIQTKEPLPTLPLGRSADVRQGEFVVAMGSPFALQNTITSGIVCSAQRPARDLGLPQTNVEYIQTDAAIDFGNSGGPLVNLDGEVIGVNTMKVTAGISFAIPSDRLREFLHRGEKKNSSSGISGSQRRYIGVMMLTLSPSILAELQLREPSFPDVQHGVLIHKVILGSPAHRAGLRPGDVILAIGEQMVQNAEDVYEAVRTQSQLAVQIRRGRETLTLYVTPEVTE | binds |
| Recombinant mature (Δ133) human HtrA2, wild type (enzyme, UniProt O43464 134-458, looked up, human serine protease HtrA2, mature processed form (Δ133): the 458 amino acid precursor without its first 133 residues, N-terminus AVPS; In pET-20b; PDB 1LCY is the S306A form of the mature protein; also called wt hHtrA2; hHtrA2; source: E. coli Rosetta (DE3), purified (Ni-NTA)) AVPSPPPASPRSQYNFIADVVEKTAPAVVYIEILDRHPFLGREVPISNGSGFVVAADGLIVTNAHVVADRRRVRVRLLSGDTYEAVVTAVDPVADIATLRIQTKEPLPTLPLGRSADVRQGEFVVAMGSPFALQNTITSGIVSSAQRPARDLGLPQTNVEYIQTDAAIDFGNSGGPLVNLDGEVIGVNTMKVTAGISFAIPSDRLREFLHRGEKKNSSSGISGSQRRYIGVMMLTLSPSILAELQLREPSFPDVQHGVLIHKVILGSPAHRAGLRPGDVILAIGEQMVQNAEDVYEAVRTQSQLAVQIRRGRETLTLYVTPEVTE | binds |

Source: paper PMC6172425, “Structural basis of inactivation of human counterpart of mouse motor neuron degeneration 2 mutant in serine protease HtrA2” (Bioscience Reports, 2018)
